Reference: article PMC5082758, “A Novel Pathway for Metabolism of the Cardiovascular Risk Factor Homoarginine by alanine:glyoxylate aminotransferase 2” (Scientific Reports, 2016)

Tests used:
purified protein [1] = substrate: N=C(N)NCCCC[C@H](N)C(=O)O; test: purified protein; format: biochemical, Homo sapiens; conditions: amino donor, co-substrate 1 mM pyruvate, PLP added (200 μM in methods, 100 μM in Figure 3 legend), potassium phosphate pH 8, 0.15 M NaCl, 25 °C
purified protein [2] = substrate: C[C@H](N)C(=O)O; test: purified protein; conditions: amino donor, co-substrate 1 mM glyoxylate, PLP added (200 μM in methods, 100 μM in Figure 3 legend), potassium phosphate pH 8, 0.15 M NaCl, 25 °C

B1: human alanine:glyoxylate aminotransferase 2 (AGXT2) (Homo sapiens) (protein)
chain: LHTKPRMPPCDFMPERYQSLGYNRVLEIHKEHLSPVVTAYFQKPLLLHQGHMEWLFDAEGSRYLDFFSGIVTVSVGHCHPKVNAVAQKQLGRLWHTSTVFFHPPMHEYAEKLAALLPEPLKVIFLVNSGSEANELAMLMARAHSNNIDIISFRGAYHGCSPYTLGLTNVGTYKMELPGGTGCQPTMCPDVFRGPWGGSHCRDSPVQTIRKCSCAPDCCQAKDQYIEQFKDTLSTSVAKSIAGFFAEPIQGVNGVVQYPKGFLKEAFELVRARGGVCIADEVQTGFGRLGSHFWGFQTHDVLPDIVTMAKGIGNGFPMAAVITTPEIAKSLAKCLQHFNTFGGNPMACAIGSAVLEVIKEENLQENSQEVGTYMLLKFAKLRDEFEIVGDVRGKGLMIGIEMVQDKISCRPLPREEVNQIHEDCKHMGLLVGRGSIFSQTFRIAPSMCITKPEVDFAVEVFRSALTQHMERRAK
notes: C-terminal FLAG fusion under CAG promoter; tag kept
- Km (purified protein [1]): 24 ± 3 mM
- kcat (purified protein [1]): 0.0188 ± 0.00067 s⁻¹
- kcat/Km (purified protein [1]): 0.783 ± 0.1 M⁻¹ s⁻¹
- Km (purified protein [2]): 25 ± 3 mM
- kcat (purified protein [2]): 0.142 ± 0.0083 s⁻¹
- kcat/Km (purified protein [2]): 5.67 M⁻¹ s⁻¹
